# Patent US20220298260A1 (MYTHIC THERAPEUTICS, published 2022)
# Numbering of substitutions follows the chain as printed.
# B1: MYT2223 (antibody, V domains shown)
# VH: EVQLVESGGGVVQPGRSLRLSCSASGFTFSGYGLSWVRQAPGKGLEWVAMISSGGSYTYYADSVKGRFAISRDNAKNTLFLQMDSLRPEDTGVYFCARHGDDPAWFAHWGQGTPVTVSS
# VL: DIQLTQSPSSLSASVGDRVTITCSVSSSISSNNLHWYQQKPGKAPKPWIYGTSNLASGVPSRFSGSGSGTDYTFTISSLQPEDIATYYCQQWSSYPYMYTFGQGTKVEIK
# notes: IgG
# B2: MYT4527 (antibody, V domains shown)
# VH: B1 VH with H108Y
# VL: B1 VL with L34H
# notes: IgG
# B3: MYT4534 (antibody, V domains shown)
# VH: B1 VH with H108Y
# VL: B1 VL with A56H
# notes: IgG
# B4: MYT4535 (antibody, V domains shown)
# VH: B1 VH with H108Y
# VL: B1 VL with S57H
# notes: IgG
# B5: MYT4528 (antibody, V domains shown)
# VH: B1 VH with H108Y
# VL: B1 VL with H35A
# notes: IgG
# B6: MYT4532 (antibody, V domains shown)
# VH: B1 VH with H108Y
# VL: B1 VL with N54H
# notes: IgG
# B7: MYT4536 (antibody, V domains shown)
# VH: B1 VH with H108Y
# VL: B1 VL with Q90H
# notes: IgG
# B8: MYT4537 (antibody, V domains shown)
# VH: B1 VH with H108Y
# VL: B1 VL with Q91H
# notes: IgG
# B9: MYT4531 (antibody, V domains shown)
# VH: B1 VH with H108Y
# VL: B1 VL with S53H
# notes: IgG
# B10: MYT4523 (antibody, V domains shown)
# VH: B1 VH with H108Y
# VL: B1 VL with S30H
# notes: IgG
# B11: MYT4520 (antibody, V domains shown)
# VH: B1 VH with H108Y
# VL: B1 VL with S27H
# notes: IgG
# B12: MYT4533 (antibody, V domains shown)
# VH: B1 VH with H108Y
# VL: B1 VL with L55H
# notes: IgG
# B13: MYT4524 (antibody, V domains shown)
# VH: B1 VH with H108Y
# VL: B1 VL with S31H
# notes: IgG
# B14: MYT4521 (antibody, V domains shown)
# VH: B1 VH with H108Y
# VL: B1 VL with S28H
# notes: IgG
# B15: MYT4530 (antibody, V domains shown)
# VH: B1 VH with H108Y
# VL: B1 VL with T52H
# notes: IgG
# B16: MYT4526 (antibody, V domains shown)
# VH: B1 VH with H108Y
# VL: B1 VL with N33H
# notes: IgG
# B17: MYT4522 (antibody, V domains shown)
# VH: B1 VH with H108Y
# VL: B1 VL with I29H
# notes: IgG
# B18: MYT4529 (antibody, V domains shown)
# VH: B1 VH with H108Y
# VL: B1 VL with G51H
# notes: IgG
# Molecular target: T1, FOLR1 (R&D Systems, Cat #5646-FR) (human, UniProt P15328 25-233)
# T1 construct: Bought soluble protein; also called Folate Receptor 1
# T1 sequence (P15328 25-233 limits assumed): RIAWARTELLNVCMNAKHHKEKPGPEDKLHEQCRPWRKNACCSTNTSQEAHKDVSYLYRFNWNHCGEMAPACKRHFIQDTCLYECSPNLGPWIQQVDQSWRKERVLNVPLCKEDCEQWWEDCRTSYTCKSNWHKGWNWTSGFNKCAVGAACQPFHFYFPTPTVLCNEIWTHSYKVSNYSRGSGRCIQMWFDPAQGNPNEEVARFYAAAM
# Test: BLI, IgG on anti-human Fc sensor, 50 nM FOLR1
row,binding result,Binder
1,binds,B1
2,binds,B2
3,binds,B3
4,binds,B4
5,binds,B5
6,binds,B6
7,binds,B7
8,binds,B8
9,binds,B9
10,binds,B10
11,binds,B11
12,binds,B12
13,binds,B13
14,binds,B14
15,binds,B15
16,binds,B16
17,binds,B17
18,binds,B18
